Data on one molecule can be found in publication doi:10.1101/2020.03.27.012328 (bioRxiv, 2020).

In the test the target is CID1R^ML (maximum likelihood reconstructed ancestral CID from the time of the first whole genome duplication). The experiment in a line: ITC. (ITC needs no label: the signal is the heat of the interaction.)

As a reminder, the Kd is a measure of binding affinity in units of concentration. Higher therefore signals weaker binding. For TPPQALQQLLQTLKSPSSPQQQQQVLQILKSNPQLMAAFIKQRSQHQQ (domain or fragment) [NCBDD/P of the ITC example in Figure S1e (label lost)], the Kd came to 2900 ± 100 nM.
